Substrate: NC(=O)c1ncn([C@@H]2O[C@H](COP(=O)(O)O)[C@@H](O)[C@H]2O)c1N
Conditions: Homo sapiens
Description: Activity of human wild-type ATIC assessed as IMPCH activity

B1: Bifunctional purine biosynthesis protein ATIC (Homo sapiens), P31939 (protein)
chain: MAPGQLALFSVSDKTGLVEFARNLTALGLNLVASGGTAKALRDAGLAVRDVSELTGFPEMLGGRVKTLHPAVHAGILARNIPEDNADMARLDFNLIRVVACNLYPFVKTVASPGVTVEEAVEQIDIGGVTLLRAAAKNHARVTVVCEPEDYVVVSTEMQSSESKDTSLETRRQLALKAFTHTAQYDEAISDYFRKQYSKGVSQMPLRYGMNPHQTPAQLYTLQPKLPITVLNGAPGFINLCDALNAWQLVKELKEALGIPAAASFKHVSPAGAAVGIPLSEDEAKVCMVYDLYKTLTPISAAYARARGADRMSSFGDFVALSDVCDVPTAKIISREVSDGIIAPGYEEEALTILSKKKNGNYCVLQMDQSYKPDENEVRTLFGLHLSQKRNNGVVDKSLFSNVVTKNKDLPESALRDLIVATIAVKYTQSNSVCYAKNGQVIGIGAGQQSRIHCTRLAGDKANYWWLRHHPQVLSMKFKTGVKRAEISNAIDQYVTGTIGEDEDLIKWKALFEEVPELLTEAEKKEWVEKLTEVSISSDAFFPFRDNVDRAKRSGVAYIAAPSGSAADKVVIEACDELGIILAHTNLRLFHH
Km: 1.9 µM
